According to paper PMC6128908, “Potent PDZ-Domain PICK1 Inhibitors that Modulate Amyloid Beta-Mediated Synaptic Dysfunction” (Scientific Reports, 2018):
Where no end group is shown, it is not given here.

B1: FITC-labeled GluN2B peptide (N-methyl-D-aspartate receptor subunit 2B, 1474–1482) (peptide)
peptide: KLSSIESDV
modifications: also: FITC label, position not given here
notes: N-methyl-D-aspartate receptor subunit 2B (GluN2B), C-terminal amino acids 1474-1482
B2: FITC-labeled 9 amino acid C-terminal peptide of GluA2 (875–883) (peptide, UniProt P42262 875-883, looked up)
peptide: VYGIESVKI
modifications: also: FITC label, position not given here
notes: AMPA receptor subunit GluA2, C-terminal 9 amino acids, residues 875-883; also called GluA2 peptide; Fluorescein isothiocyanate-labeled peptide comprising the C-terminal amino acids of GluA2

Tests used:
[1] = molecular target: T1, PSD95 protein (domains 1–2 in tandem; aminoacids 61–249) (UniProt P78352 61-249); test: fluorescence polarisation; competition FP: FITC-labeled peptides fixed at 5 nM, non-saturating protein concentrations (PICK1 600 nM; PSD95 PDZ 1–2 8 µM; Shank3 8 µM), unlabeled peptides or compound varied; normalised to binding and tracer-only controls; conditions: both partners purified
T1 construct: PSD95 (postsynaptic density 95), PDZ domains 1-2 in tandem, amino acids 61-249; also called postsynaptic density 95 (PSD95) PDZ 1–2; source: E. coli, purified

[2] = molecular target: T2, His-MBP PICK1 construct (amino acids 1–356) (UniProt Q9NRD5 1-356); test: FRET or BRET; high throughput screen with a FRET-based readout: His-MBP PICK1 (1–356) and FITC-labelled 9 amino acid GluA2 C-terminal peptide; compounds at 50 μM; conditions: both partners purified
T2 construct: it is used here for both assays; Details of the construct are in Supplemental Methods; also called truncated, dimeric form of PICK1 lacking the last 59 residues; source: baculovirus expression, purified (Nickel chromatography, size exclusion chromatography)
T2 sequence (Q9NRD5 1-356): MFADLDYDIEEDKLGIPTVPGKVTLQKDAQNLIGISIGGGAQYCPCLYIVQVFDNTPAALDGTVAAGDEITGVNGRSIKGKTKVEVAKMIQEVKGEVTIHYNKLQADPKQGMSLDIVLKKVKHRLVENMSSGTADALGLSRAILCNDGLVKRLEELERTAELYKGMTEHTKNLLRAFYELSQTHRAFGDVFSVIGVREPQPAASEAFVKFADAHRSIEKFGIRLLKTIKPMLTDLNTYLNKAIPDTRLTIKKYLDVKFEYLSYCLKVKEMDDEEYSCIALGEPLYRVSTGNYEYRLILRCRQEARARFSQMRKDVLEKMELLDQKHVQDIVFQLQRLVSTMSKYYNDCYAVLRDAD

T1 sequence (P78352 61-249): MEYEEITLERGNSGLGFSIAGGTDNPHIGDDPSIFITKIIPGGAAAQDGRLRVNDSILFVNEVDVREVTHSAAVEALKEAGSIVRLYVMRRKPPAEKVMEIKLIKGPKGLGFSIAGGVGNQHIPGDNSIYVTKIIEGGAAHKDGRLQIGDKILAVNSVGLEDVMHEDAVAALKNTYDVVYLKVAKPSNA

| Binder | binding result [1] | binding result [2] |
| --- | --- | --- |
| B1 | binds | – |
| B2 | – | binds |
